Source: patent US20220177584A1 (Janssen / Centocor, published 2022)

Molecular target: cynomolgus monkey GPRC5D (cynomolgus monkey)
Test: cell-based or functional assay

B1: talquetamab (bispecific antibody, human IgG4 S228P, lambda, F234A L235A)
heavy 1: not shown
light 1: DIQMTQSPSSLSASVGDRVTITCKASQNVATHVGWYQQKPGKAPKRLIYSASYRYSGVPSRFSGSGSGTEFTLTISNLQPEDFATYYCQQYNRYPYTFGQGTKLEIKKAAPSVTLFPPSSEELQANKATLVCLISDFYPGAVTVAWKGDSSPVKAGVETTTPSKQSNNKYAASSYLSLTPEQWKSHRSYSCQVTHEGSTVEKTVAPTECS
heavy 2: EVQLVESGGGLVQPGGSLRLSCAASGFTFNTYAMNWVRQAPGKGLEWVARIRSKYNNYATYYAASVKGRFTISRDDSKNSLYLQMNSLKTEDTAVYYCARHGNFGNSYVSWFAYWGQGTLVTVSSASTKGPSVFPLAPCSRSTSESTAALGCLVKDYFPEPVTVSWNSGALTSGVHTFPAVLQSSGLYSLSSVVTVPSSSLGTKTYTCNVDHKPSNTKVDKRVESKYGPPCPPCPAPEAAGGPSVFLFPPKPKDTLMISRTPEVTCVVVDVSQEDPEVQFNWYVDGVEVHNAKTKPREEQFNSTYRVVSVLTVLHQDWLNGKEYKCKVSNKGLPSSIEKTISKAKGQPREPQVYTLPPSQEEMTKNQVSLTCLVKGFYPSDIAVEWESNGQPENNYKTTPPVLDSDGSFLLYSKLTVDKSRWQEGNVFSCSVMHEALHNHYTQKSLSLSLGK
light 2: QTVVTQEPSLTVSPGGTVTLTCRSSTGAVTTSNYANWVQQKPGQAPRGLIGGTNKRAPGTPARFSGSLLGGKAALTLSGVQPEDEAEYYCALWYSNLWVFGGGTKLTVLGQPKAAPSVTLFPPSSEELQANKATLVCLISDFYPGAVTVAWKADSSPVKAGVETTTPSKQSNNKYAASSYLSLTPEQWKSHRSYSCQVTHEGSTVEKTVAPTECS
in vivo pharmacological activity, cynomolgus monkey against human: ~100 fold lower
